Assay results: article PMC8124205, “Immuno-PET Molecular Imaging of RANKL in Cancer” (Cancers, 2021)

Biological target: T1, osteoprotegerin (OPG) (UniProt O00300 22-401)
T1 construct: osteoprotegerin (OPG)
T1 sequence (looked up): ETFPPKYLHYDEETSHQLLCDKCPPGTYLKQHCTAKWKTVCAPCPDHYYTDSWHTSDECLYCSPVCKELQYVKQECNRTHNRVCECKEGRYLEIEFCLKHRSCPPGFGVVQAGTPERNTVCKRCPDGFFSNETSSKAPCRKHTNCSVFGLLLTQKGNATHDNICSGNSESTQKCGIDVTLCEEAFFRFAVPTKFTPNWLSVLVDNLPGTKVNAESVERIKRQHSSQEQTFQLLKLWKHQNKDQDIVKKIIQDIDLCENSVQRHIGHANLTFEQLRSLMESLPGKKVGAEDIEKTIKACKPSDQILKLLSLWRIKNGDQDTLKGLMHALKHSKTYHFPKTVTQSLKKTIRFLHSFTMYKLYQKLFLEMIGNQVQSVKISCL
Assay: non-cell based binding assay; binding to human RANKL, as previously described (ref. 14); format and conditions not told

Kd: ~0.63 nM
B1: human receptor activator of nuclear factor kappa B ligand (RANKL) (ligand, UniProt O14788 140-317, looked up)
chain: IRAEKAMVDGSWLDLAKRSKLEAQPFAHLTINATDIPSGSHKVSLSSWYHDRGWAKISNMTFSNGKLIVNQDGFYYLYANICFRHHETSGDLATEYLQLMVYVTKTSIKIPSSHTLMKGGSTKYWSGNSEFHFYSINVGGFFKLRSGEEISIEVSNPSLLDPDQDATYFGAFKVRDID
notes: also called human RANKL; huRANKL; source: recombinant protein huRANKL, provided by Amgen Inc
